Reference: patent publication US20220389394A1 (Gilead, published 2022)
Blank lines part the entries; values can stand above or below the binder they belong to.

How the values were obtained:
[1] = biological target: T1, recombinant human FcRn (human, UniProt P55899 24-297; P61769 21-119, limits assumed); assay: FcRn ELISA
T1 construct: a beta-2-microglobulin chain is not mentioned; also called human recombinant FcRn

[2] = biological target: T1, recombinant human FcRn; assay: ELISA; recombinant human FcRn coated, serially diluted test article, anti-human (H+L)-HRP, 4PL fit
Description: (§1) Graph is a result of one experiment. Experiment was performed in duplicate. Error bars represent standard deviation of the mean values.
Signal was developed using TMB substrate then quenched prior to reading absorbance at 450-650 nm on a SpectraMax plate reader.

[3] = biological target: T2, recombinant human C1q protein (Fitzgerald) (human, UniProt P02745 23-245; P02746 28-253; P02747 29-245, limits assumed); assay: ELISA, test article immobilized, C1q added; text: devoid of C1q binding ability
T2 construct: also called human recombinant complement protein, C1q
T2 sequence (P02745 23-245 limits assumed, chain 1 of 3): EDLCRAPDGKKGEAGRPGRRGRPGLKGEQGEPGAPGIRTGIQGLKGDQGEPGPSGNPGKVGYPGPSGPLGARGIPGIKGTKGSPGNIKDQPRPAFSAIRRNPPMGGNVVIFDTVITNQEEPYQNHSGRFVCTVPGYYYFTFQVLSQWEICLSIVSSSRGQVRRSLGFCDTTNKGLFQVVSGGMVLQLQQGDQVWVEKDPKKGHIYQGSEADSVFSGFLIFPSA
T2 sequence (P02746 28-253 limits assumed, chain 2 of 3): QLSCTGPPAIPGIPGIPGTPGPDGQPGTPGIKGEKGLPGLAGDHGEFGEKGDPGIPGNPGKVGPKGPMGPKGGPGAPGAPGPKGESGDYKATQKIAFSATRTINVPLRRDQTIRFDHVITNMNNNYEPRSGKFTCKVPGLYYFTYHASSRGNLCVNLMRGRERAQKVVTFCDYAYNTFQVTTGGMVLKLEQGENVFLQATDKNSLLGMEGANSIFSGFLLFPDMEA
T2 sequence (P02747 29-245 limits assumed, chain 3 of 3): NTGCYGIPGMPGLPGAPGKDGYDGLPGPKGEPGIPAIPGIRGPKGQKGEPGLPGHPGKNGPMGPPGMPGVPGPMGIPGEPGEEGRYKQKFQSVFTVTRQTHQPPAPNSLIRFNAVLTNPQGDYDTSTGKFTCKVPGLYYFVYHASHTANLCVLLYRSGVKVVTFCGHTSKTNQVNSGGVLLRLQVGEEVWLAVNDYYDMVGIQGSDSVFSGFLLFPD

[4] = biological target: T3, his-tagged recombinant human Flt3 receptor (Sino Biologicals) (human, UniProt P36888 27-541, limits assumed); assay: ELISA; His-tagged recombinant human Flt3 on nickel plate, serially diluted Flt3L-Fc, anti-human (H+L)-HRP, 4PL fit
T3 construct: Bought protein; also called human recombinant FLT3; not shown: His tag
T3 sequence (looked up): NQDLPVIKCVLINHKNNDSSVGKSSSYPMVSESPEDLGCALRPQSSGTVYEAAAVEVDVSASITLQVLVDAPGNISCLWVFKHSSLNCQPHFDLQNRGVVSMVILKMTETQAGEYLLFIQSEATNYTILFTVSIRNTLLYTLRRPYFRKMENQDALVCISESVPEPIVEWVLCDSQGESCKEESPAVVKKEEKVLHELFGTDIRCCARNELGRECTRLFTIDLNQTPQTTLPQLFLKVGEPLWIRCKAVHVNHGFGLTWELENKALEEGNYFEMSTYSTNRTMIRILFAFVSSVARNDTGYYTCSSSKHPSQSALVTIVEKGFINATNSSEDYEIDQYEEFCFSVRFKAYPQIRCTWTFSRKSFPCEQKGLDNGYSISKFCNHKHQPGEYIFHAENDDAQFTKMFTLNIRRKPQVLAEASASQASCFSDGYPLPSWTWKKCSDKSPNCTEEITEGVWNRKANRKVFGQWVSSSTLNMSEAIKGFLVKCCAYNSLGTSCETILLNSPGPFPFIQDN
Description: as §1
Signal was developed using TMB substrate then quenched prior to reading absorbance at 450 nm on a SpectraMax plate reader.

[5] = biological target: T4, human FLT3 on the AML5 cell line (human, UniProt P36888 27-993); assay: cell-based or functional assay
T4 sequence (looked up): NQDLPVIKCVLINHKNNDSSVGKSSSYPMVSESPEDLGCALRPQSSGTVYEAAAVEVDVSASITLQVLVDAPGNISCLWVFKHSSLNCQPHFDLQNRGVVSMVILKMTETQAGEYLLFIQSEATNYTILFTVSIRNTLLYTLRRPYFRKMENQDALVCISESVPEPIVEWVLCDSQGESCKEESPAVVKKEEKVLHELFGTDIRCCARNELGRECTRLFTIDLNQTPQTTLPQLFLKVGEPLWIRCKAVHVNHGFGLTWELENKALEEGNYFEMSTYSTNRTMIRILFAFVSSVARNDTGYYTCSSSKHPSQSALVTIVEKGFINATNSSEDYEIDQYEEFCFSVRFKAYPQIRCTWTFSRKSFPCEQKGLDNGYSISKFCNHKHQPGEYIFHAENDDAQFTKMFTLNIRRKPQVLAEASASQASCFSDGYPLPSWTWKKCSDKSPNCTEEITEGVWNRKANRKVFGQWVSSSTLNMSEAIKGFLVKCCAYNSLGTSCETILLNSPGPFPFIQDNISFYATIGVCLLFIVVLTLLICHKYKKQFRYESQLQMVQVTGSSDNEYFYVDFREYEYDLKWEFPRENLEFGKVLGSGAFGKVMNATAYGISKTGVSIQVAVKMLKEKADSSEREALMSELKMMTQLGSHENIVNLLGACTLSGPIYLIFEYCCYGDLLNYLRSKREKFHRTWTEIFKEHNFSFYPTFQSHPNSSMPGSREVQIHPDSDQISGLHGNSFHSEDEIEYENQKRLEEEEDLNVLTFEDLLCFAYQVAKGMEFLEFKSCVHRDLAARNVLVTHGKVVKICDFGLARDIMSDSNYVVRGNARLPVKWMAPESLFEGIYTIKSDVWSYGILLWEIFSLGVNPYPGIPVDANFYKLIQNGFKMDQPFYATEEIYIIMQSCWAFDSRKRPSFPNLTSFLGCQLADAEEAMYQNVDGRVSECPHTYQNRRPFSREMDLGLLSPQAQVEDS

- fold increase in FcRn binding against SEQ ID NO:1 [1]: 38 fold
- EC50 [2]: 61000 pM
- EC50 [4]: 880 pM
- EC50 (nM), AML5 proliferation [5]: 0.037 nM
B1: human FLT3-ligand human hingeless IgG1 (M252Y/S254T/T256E) fusion protein (SEQ ID NO:9) (Fc fusion)
chain: TQDCSFQHSPISSDFAVKIRELSDYLLQDYPVTVASNLQDEELCGGLWRLVLAQRWMERLKTVAGSKMQGLLERVNTEIHFVTKCAFQPPPSCLRFVQTNISRLLQETSEQLVALKPWITRQNFSRCLELQCQPDSSTLPPPWSPRPLEATAPTAPQGGPSVFLFPPKPKDTLYITREPEVTCVVVDVSHEDPEVKFNWYVDGVEVHNAKTKPREEQYNSTYRVVSVLTVLHQDWLNGKEYKCKVSNKALPAPIEKTISKAKGQPREPQVYTLPPSREEMTKNQVSLTCLVKGFYPSDIAVEWESNGQPENNYKTTPPVLDSDGSFFLYSKLTVDKSRWQQGNVFSCSVMHEALHNHYTQKSLSLSPGK
notes: also called FLT3L ECD-hingeless hG1 (M252Y/S254T/T256E)
- binding result [3]: no binding (tested: 94 nM (highest of the titration))

- fold increase in FcRn binding against SEQ ID NO:6 [1]: 2 fold
- EC50 [2]: 178000 pM
- EC50 [4]: 920 pM
- EC50 (nM), AML5 proliferation [5]: 0.046 nM
B2: human FLT3-ligand (Δ5 amino acid) human IgG4 (S228P/F234A/L235A/M252Y/S254T/T256E) fusion protein (SEQ ID NO:14) (Fc fusion)
chain: TQDCSFQHSPISSDFAVKIRELSDYLLQDYPVTVASNLQDEELCGGLWRLVLAQRWMERLKTVAGSKMQGLLERVNTEIHFVTKCAFQPPPSCLRFVQTNISRLLQETSEQLVALKPWITRQNFSRCLELQCQPDSSTLPPPWSPRPLEATAESKYGPPCPPCPAPEAAGGPSVFLFPPKPKDTLYITREPEVTCVVVDVSQEDPEVQFNWYVDGVEVHNAKTKPREEQFNSTYRVVSVLTVLHQDWLNGKEYKCKVSNKGLPSSIEKTISKAKGQPREPQVYTLPPSQEEMTKNQVSLTCLVKGFYPSDIAVEWESNGQPENNYKTTPPVLDSDGSFFLYSRLTVDKSRWQEGNVFSCSVMHEALHNHYTQKSLSLSLGK
notes: also called FLT3L ECD (Δ C-term 5aa (PTAPQ)) - hG4 (S228P/F234A/L235A/M252Y/S254T/T256E)
- binding result [3]: no binding (tested: 94 nM (highest of the titration))
